In patent US20190330354A1 (MITSUBISHI TANABE PHARMA, published 2019):
Like-named read-outs stand apart in the source and are kept apart here. Blank lines part the entries; values can stand above or below the binder they belong to.

Tests used:
[1] = target: T1, Canine (limits assumed); experiment: ELISA, antibody titrated on cMet of the named species, OD 450 nm
T1 construct: also called canine cMet; dog cMET
T1 receptor: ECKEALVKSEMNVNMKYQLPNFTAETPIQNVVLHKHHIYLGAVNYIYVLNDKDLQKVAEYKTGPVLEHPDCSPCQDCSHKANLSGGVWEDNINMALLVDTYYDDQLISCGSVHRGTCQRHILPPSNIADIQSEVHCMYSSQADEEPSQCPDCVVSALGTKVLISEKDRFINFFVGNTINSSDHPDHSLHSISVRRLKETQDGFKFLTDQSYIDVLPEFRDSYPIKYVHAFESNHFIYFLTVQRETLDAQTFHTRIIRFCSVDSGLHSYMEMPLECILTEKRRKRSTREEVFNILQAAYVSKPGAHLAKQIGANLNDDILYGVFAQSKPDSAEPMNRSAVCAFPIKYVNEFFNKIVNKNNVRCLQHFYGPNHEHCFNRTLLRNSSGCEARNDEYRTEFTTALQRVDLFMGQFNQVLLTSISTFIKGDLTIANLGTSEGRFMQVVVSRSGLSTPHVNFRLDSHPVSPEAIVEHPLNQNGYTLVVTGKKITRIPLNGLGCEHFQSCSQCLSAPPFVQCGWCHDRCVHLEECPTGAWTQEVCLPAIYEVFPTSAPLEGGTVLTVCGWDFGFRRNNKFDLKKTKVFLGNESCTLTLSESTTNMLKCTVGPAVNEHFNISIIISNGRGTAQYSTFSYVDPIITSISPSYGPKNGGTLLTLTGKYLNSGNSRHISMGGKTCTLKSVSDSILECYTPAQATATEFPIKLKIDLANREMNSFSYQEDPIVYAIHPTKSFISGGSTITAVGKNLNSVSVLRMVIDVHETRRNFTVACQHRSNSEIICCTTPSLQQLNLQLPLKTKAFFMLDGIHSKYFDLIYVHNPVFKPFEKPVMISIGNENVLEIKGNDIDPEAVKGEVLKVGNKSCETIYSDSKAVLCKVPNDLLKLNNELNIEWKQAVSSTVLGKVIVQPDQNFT

[2] = target: T2, mouse cMET (mouse, UniProt P16056 25-931, limits assumed); experiment: as above
T2 construct: ELISA antigen

[3] = target: T1, Canine; experiment: as above
[4] = target: T2, mouse cMET; experiment: as above; remark: listed apart in the source
[5] = target: T1, Canine; experiment: as above
[6] = target: T2, mouse cMET; experiment: as above; remark: listed apart in the source
[7] = target: T3, human cMET (human, UniProt P08581 25-932, limits assumed); experiment: ELISA on human cMET, ratio to parental P3D12
T3 construct: also called hMET
T3 sequence (P08581 25-932 limits assumed): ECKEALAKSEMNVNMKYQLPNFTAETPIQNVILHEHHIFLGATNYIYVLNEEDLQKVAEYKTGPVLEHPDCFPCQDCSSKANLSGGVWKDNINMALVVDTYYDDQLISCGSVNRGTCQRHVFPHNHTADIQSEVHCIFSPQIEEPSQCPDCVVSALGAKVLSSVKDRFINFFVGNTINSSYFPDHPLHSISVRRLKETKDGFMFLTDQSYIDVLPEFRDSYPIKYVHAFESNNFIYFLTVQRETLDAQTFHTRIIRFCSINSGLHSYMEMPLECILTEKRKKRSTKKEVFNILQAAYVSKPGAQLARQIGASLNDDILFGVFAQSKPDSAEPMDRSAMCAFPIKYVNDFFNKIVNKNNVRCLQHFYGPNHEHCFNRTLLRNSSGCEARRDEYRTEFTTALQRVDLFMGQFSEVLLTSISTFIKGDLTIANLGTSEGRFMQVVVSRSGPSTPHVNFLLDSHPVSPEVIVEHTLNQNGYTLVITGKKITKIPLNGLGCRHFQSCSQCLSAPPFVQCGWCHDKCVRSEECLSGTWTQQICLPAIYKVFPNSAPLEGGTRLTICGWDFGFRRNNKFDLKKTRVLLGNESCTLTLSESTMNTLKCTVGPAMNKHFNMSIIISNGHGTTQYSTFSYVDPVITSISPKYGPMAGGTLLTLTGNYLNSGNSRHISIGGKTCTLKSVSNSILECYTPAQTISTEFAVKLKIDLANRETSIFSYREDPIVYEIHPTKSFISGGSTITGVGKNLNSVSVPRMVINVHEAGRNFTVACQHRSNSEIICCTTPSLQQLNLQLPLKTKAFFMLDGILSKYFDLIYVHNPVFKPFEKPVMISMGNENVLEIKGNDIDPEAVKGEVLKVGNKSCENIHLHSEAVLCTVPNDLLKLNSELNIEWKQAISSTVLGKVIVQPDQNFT

[8] = target: T4, rat cMET (rat, UniProt P97523 25-935, limits assumed); experiment: ELISA on rat cMET, ratio to parental P3D12
T4 construct: ELISA antigen; also called rMET
Target sequence in this assay (P97523 25-935 limits assumed): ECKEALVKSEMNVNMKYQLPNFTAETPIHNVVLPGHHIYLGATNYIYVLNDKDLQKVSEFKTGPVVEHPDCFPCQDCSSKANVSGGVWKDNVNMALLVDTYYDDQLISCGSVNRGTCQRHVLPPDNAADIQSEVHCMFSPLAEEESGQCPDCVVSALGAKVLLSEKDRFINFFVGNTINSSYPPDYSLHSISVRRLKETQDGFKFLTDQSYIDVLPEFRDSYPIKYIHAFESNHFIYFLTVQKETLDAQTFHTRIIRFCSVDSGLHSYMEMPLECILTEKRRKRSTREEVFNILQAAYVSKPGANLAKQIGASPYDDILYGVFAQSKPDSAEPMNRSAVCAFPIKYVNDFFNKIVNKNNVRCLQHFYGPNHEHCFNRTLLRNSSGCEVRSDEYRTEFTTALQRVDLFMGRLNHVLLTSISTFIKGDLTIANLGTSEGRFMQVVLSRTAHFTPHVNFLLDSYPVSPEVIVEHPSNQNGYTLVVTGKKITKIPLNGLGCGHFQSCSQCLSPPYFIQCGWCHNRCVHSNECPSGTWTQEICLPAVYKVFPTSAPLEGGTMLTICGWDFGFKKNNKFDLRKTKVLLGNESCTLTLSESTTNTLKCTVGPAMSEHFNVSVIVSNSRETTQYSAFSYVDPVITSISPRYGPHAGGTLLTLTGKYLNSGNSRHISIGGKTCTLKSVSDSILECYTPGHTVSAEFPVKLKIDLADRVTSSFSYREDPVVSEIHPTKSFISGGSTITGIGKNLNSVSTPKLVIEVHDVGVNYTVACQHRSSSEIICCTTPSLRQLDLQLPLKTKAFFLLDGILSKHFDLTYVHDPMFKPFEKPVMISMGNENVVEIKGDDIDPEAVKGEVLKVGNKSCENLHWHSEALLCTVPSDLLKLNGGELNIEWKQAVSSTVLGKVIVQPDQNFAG

[9] = target: T1, Canine; experiment: ELISA, antibody titrated on cMet of the named species, OD 450 nm
[10] = target: T4, rat cMET; experiment: as above
[11] = target: T2, mouse cMET; experiment: as above; remark: listed apart in the source
[12] = target: T1, Canine; experiment: as above
[13] = target: T4, rat cMET; experiment: as above; remark: listed apart in the source
[14] = target: T2, mouse cMET; experiment: as above; remark: listed apart in the source
[15] = target: human cMET-Fc fusion protein (human) [IgG part: P01857]; experiment: SPR with hMet-Fc

B1: F6B1P3D12 (antibody, V domains shown)
VH: QVQLQQSGAELAKPGASVKMSCRASGYTFTSYWMHWVKQRPGQGLDWIGYIKPSTDNTEYNQKFKDKATLTADKSSSTAYMQLSSLTSEDSAVYYCARSYGNYPLMDYWGQGTSVTVSS
VL: QIVLTQSPAIMSASPGEKVTLTCSASSSVTSNYLYWYQQKPGSSPKLWIYSTSNLASGVPARFSGSGSGTSYSLTISSMEAEDAASYFCHQWSSYPPTFGSGTKLEIKR
notes: Mouse monoclonal antibody from a hybridoma; also called Mouse P3D12; P3D12(mouse)
binding result [1]: no binding (tested: 10 ug/mL (axis value 1, log10)) | binding result [2]: no binding (tested: 10 ug/mL (axis value 1, log10))

B2: F6B1P1E2 (antibody, V domains shown)
VH: QVQLQQSGAELAKPGASVKMSCKASGYTFTSYWMHWVKQRPGQGLEWIGYINPSTDYTEYNQKFKDKATLTADKSSTTAYMQLSSLTSEDSAVYYCVRSYGNYPLMDYWGQGTSVTVSS
VL: QIVLTQSPAIMSASPGEKVTLTCSASSSVSSNYLYWYHQKPGSSPKLWIYSTSNLASGVPVRFSGSGSGTSYSLTISSMEAEDAASYFCHQWSSYPPTFGSGTKLEIKR
notes: Mouse monoclonal antibody
binding result [3]: no binding (tested: 10 ug/mL (axis value 1, log10)) | binding result [4]: no binding (tested: 10 ug/mL (axis value 1, log10))

B3: F6BP2D4 (antibody, V domains shown)
VH: QVQLQQSGAELAKPGASVKMSCKASGYTFTSYWMHWVKQRPGQGLEWIGYINPSTDYIEYNQKFKDKATLTAGKSSSTAYMQLSSLTSEDSAVYYCARSYGNFPLMDYWGQGTSVTVSS
VL: QIVLTQSPAIMSASPGEKVTLTCSASSSVSSNYLYWYQQKPGSSPKLWIYSTSNLASGVPVRFSGSGSGTSYSLTISSMEAEDAASYFCHQWSSYPPTFGSGTKLEIKR
notes: Mouse monoclonal antibody
binding result [5]: no binding (tested: 10 ug/mL (axis value 1, log10)) | binding result [6]: no binding (tested: 10 ug/mL (axis value 1, log10))

ELISA hMET vs parental [7]: 1.8 | ELISA rMET vs parental [8]: 1.6
B4: G2vkv (antibody, V domains shown)
VH: QVQLVQSGAEVAKPGASVKMSCKASGYTFTSYWMHWVKQAPGQGLDWIGYIKPSTDNTEYNQKFKDKATLTADKSTSTAYMQLSSLRSEDTAVYYCARSYGNYPLMDYWGQGTTVTVSS
VL: QIVLTQSPATMSASPGERVTLSCSASSSVTSNYLYWYQQKPGSSPRLWIYSTSNLASGVPARFSGSGSGTSYTLTISRMEPEDAASYFCHQWSSYPPTFGSGTKLEIKR
notes: As G2aka; reported insoluble in PBS; also called humanized P3D12, HC VH-ven, LC ven

ELISA hMET vs parental [7]: 1.1 | ELISA rMET vs parental [8]: 1.9
B5: G2vkc (antibody, V domains shown)
VH: QVQLVQSGAEVAKPGASVKMSCKASGYTFTSYWMHWVKQAPGQGLDWIGYIKPSTDNTEYNQKFKDKATLTADKSTSTAYMQLSSLRSEDTAVYYCARSYGNYPLMDYWGQGTTVTVSS
VL: QIVLTQSPATLSLSPGERATLSCSASSSVTSNYLYWYQQKPGSSPRLLIYSTSNLASGVPARFSGSGSGTSYTLTISRLEPEDFASYFCHQWSSYPPTFGSGTKLEIKR
notes: As G2aka; also called humanized P3D12, HC VH-ven, LC cdr

ELISA hMET vs parental [7]: 0.9 | ELISA rMET vs parental [8]: 2.7
B6: G2vka (antibody, V domains shown)
VH: QVQLVQSGAEVAKPGASVKMSCKASGYTFTSYWMHWVKQAPGQGLDWIGYIKPSTDNTEYNQKFKDKATLTADKSTSTAYMQLSSLRSEDTAVYYCARSYGNYPLMDYWGQGTTVTVSS
VL: QIVLTQSPATLSLSPGERATLSCRASQSVTSNYLYWYQQKPGSSPRLLIYSTSNLASGVPARFSGSGSGTDYTLTISRLEPEDFASYFCHQWSSYPPTFGSGTKLEIKR
notes: As G2aka; also called humanized P3D12, HC VH-ven, LC abb/sdr

ELISA hMET vs parental [7]: 1.8 | ELISA rMET vs parental [8]: 1.3
B7: G2akv (antibody, V domains shown)
VH: QVQLVQSGAEVKKPGASVKVSCKASGYTFTSYWMHWVKQAPGQGLDWMGYIKPSTDNTEYAQKFQGRVTLTADKSTSTAYMELSSLRSEDTAVYYCARSYGNYPLMDYWGQGTTVTVSS
VL: QIVLTQSPATMSASPGERVTLSCSASSSVTSNYLYWYQQKPGSSPRLWIYSTSNLASGVPARFSGSGSGTSYTLTISRMEPEDAASYFCHQWSSYPPTFGSGTKLEIKR
notes: As G2aka; reported insoluble in PBS; also called humanized P3D12, HC VH-abb/sdr, LC ven

B8: F6AP8E2 (antibody, V domains shown)
VH: EVQLQQSGAELVRPGALVKLSCKASGFNINDYFMHWVKQRPEQGLEWIGWIDPENGNTIYDPKFQGKASITADTSSNTAYLQLSSLTSEDTAVYYCARGGNYLRESYYYAMDYWGQGTSVTVSS
VL: DIVMTQSPKSMSMSVGERVTLSCKASENVGTYVSWYQQKPDQSPKLLIYGASNRYTGVPDRFTGSGSATDFTLTISSVQAEDLADYHCGQSYSYPLTFGAGTKLELKR
notes: Mouse monoclonal antibody
binding result [9]: no binding (tested: 10 ug/mL (axis value 1, log10)) | binding result [10]: no binding (tested: 10 ug/mL (axis value 1, log10)) | binding result [11]: no binding (tested: 10 ug/mL (axis value 1, log10))

binding result [12]: no binding (tested: 10 ug/mL) | binding result [13]: no binding (tested: 10 ug/mL) | binding result [14]: no binding (tested: 10 ug/mL)
B9: F5P5B9 (antibody, V domains shown)
VH: QVQLKESGPGLVAPSQSLSITCTVSGFSLTNYGVNWVRQPPGKGLEWLGLIWGGGDTDYNSALKSRLSISKDNSKSQVFLKMETNSLQTDDTARYYCARDYYGFDYWGQGTTLTVSS
VL: DVLMTQTPLSLPVSLGDQASISCRSSQTIVHGTGNTYLEWYLQKPGQSPKLLIYKVSNRFSGVPDRFSGSGSGTDFTLKISRVEAEDLGVYYCFQGSHVPYTFGGGTKLEIKR
notes: Mouse monoclonal antibody

Kd [15]: 0.7 nM
B10: ABF46 (antibody, from another filing, V domains shown)
VH: EVKLVESGGGLVQPGGSLRLSCATSGFTFTDYYMSWVRQPPGKALEWLGFIRNKANGYTTEYSASVKGRFTISRDNSQSILYLQMDTLRAEDSATYYCARDNWFAYWGQGTLVTVSA
VL: DILMTQSPSSLTVSAGEKVTMSCKSSQSLLASGNQNNYLAWHQQKPGRSPKMLIIWASTRVSGVPDRFIGSGSGTDFTLTINSVQAEDLAVYYCQQSYSAPLTFGAGTKLELKR

ELISA hMET vs parental [7]: 1.3 | ELISA rMET vs parental [8]: 0.7
B11: G2akc (antibody, V domains shown)
VH: QVQLVQSGAEVKKPGASVKVSCKASGYTFTSYWMHWVKQAPGQGLDWMGYIKPSTDNTEYAQKFQGRVTLTADKSTSTAYMELSSLRSEDTAVYYCARSYGNYPLMDYWGQGTTVTVSS
VL: QIVLTQSPATLSLSPGERATLSCSASSSVTSNYLYWYQQKPGSSPRLLIYSTSNLASGVPARFSGSGSGTSYTLTISRLEPEDFASYFCHQWSSYPPTFGSGTKLEIKR
notes: As G2aka; also called humanized P3D12, HC VH-abb/sdr, LC cdr

ELISA hMET vs parental [7]: 1.1 | ELISA rMET vs parental [8]: 1
B12: G2vkf (antibody, V domains shown)
VH: QVQLVQSGAEVAKPGASVKMSCKASGYTFTSYWMHWVKQAPGQGLDWIGYIKPSTDNTEYNQKFKDKATLTADKSTSTAYMQLSSLRSEDTAVYYCARSYGNYPLMDYWGQGTTVTVSS
VL: QIVLTQSPAILSLSPGERATLSCSASSSVTSNYLYWYQQKPGSSPKLLIYSTSNLASGVPARFSGSGSGTSYTLTISSLEAEDAASYFCHQWSSYPPTFGSGTKLEIKR
notes: As G2aka; also called humanized P3D12, HC VH-ven, LC fra
